Experimental data taken from patent publication US20180022808A1.

Target: recombinant Phl p 2 (Biomay AG) (UniProt P43214)
Test: flow cytometry scatter plot on 16HBE14o- cells pre-incubated with 1 µg of the conjugate at ratio 1:0.25, then 1 µg Phl p 2, rabbit anti-Phl p 2 (FIG. 3 C)

UniProt P43214, sequence (P43214 27-122 limits assumed): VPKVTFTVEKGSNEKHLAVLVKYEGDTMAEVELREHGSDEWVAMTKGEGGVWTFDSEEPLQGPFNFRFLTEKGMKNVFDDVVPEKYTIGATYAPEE

percent of cells with Phl p 2 bound to their cell surface: 50%
Substance: P2/ICAM1 bi-specific antibody conjugate (streptavidin-conjugated Phl p 2-specific human IgG1 coupled to biotin-labeled ICAM1-specific mouse IgG1) (from UniProt P22629 37-163) (bispecific antibody)
